The assay addresses human GRP receptor (human, UniProt P30550 1-384). The assay is described as follows: cell-based or functional assay.

Starred links: 1 amine or outer side, 2 acyl side, 3 side chain; linkers in the order of their positions; H or OH if unused. Non-standard residues stand in square brackets, D forms with d. No end group written: not given here. *: point of attachment. C20 diacid = O=C(O)CCCCCCCCCCCCCCCCCCC(=O)*; d(γGlu) = O=C(O)[C@@H](CCC(=O)[*:2])N[*:1]; C18 diacid = O=C(O)CCCCCCCCCCCCCCCCC(=O)*; γGlu = O=C(O)[C@H](CCC(=O)[*:2])N[*:1]; Palmitoyl = CCCCCCCCCCCCCCCC(=O)*; 3Pal = N[C@@H](Cc1cccnc1)C(=O)O; Nle = CCCC[C@H](N)C(=O)O; AEEA = NCCOCCOCC(=O)O; βAla = NCCC(=O)O

Sequence of human GRP receptor (P30550 whole entry): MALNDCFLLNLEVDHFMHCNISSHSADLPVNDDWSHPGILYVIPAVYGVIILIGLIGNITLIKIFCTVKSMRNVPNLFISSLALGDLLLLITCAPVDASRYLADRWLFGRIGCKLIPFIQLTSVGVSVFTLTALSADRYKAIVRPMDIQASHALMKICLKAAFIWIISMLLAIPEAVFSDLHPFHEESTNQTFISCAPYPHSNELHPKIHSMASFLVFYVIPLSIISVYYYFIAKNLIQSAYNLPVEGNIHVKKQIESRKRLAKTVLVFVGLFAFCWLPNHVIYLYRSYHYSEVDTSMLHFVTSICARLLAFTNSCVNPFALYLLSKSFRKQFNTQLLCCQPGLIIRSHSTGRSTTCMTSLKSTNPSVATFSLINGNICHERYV

With {C18 diacid}-[γGlu][AEEA][AEEA]RNHWAV[dA]HL[Nle] [Peptide 156], the “hIP1 GRPR EC50” value turned out to be 358 nM.

B1: Peptide 12 (peptide)
peptide: Palmitoyl-[d(γGlu)][AEEA][AEEA]GN[3Pal]WAV[dA]HL[Nle]-NH2
SMILES: CCCCCCCCCCCCCCCC(=O)N[C@H](CCC(=O)NCCOCCOCC(=O)NCCOCCOCC(=O)NCC(=O)N[C@@H](CC(N)=O)C(=O)N[C@@H](Cc1cccnc1)C(=O)N[C@@H](Cc1c[nH]c2ccccc12)C(=O)N[C@@H](C)C(=O)N[C@H](C(=O)N[C@H](C)C(=O)N[C@@H](Cc1c[nH]cn1)C(=O)N[C@@H](CC(C)C)C(=O)N[C@@H](CCCC)C(N)=O)C(C)C)C(=O)O
Consider B1, for which the “hIP1 GRPR EC50” value amounted to 1.8 nM.

B2: Peptide 153 (peptide)
peptide: {C20 diacid}-[γGlu]GRHWAV[dA]HL[Nle]-NH2
SMILES: CCCC[C@H](NC(=O)[C@H](CC(C)C)NC(=O)[C@H](Cc1c[nH]cn1)NC(=O)[C@@H](C)NC(=O)[C@@H](NC(=O)[C@H](C)NC(=O)[C@H](Cc1c[nH]c2ccccc12)NC(=O)[C@H](Cc1c[nH]cn1)NC(=O)[C@H](CCCNC(=N)N)NC(=O)CNC(=O)CC[C@H](NC(=O)CCCCCCCCCCCCCCCCCCC(=O)O)C(=O)O)C(C)C)C(N)=O
On to B2, for which the “hIP1 GRPR EC50” value was 2.87 nM.

B3: Peptide 152 (peptide)
peptide: {C18 diacid}-[γGlu][AEEA][AEEA]QHWAV[βAla]HL[Nle]-NH2
SMILES: CCCC[C@H](NC(=O)[C@H](CC(C)C)NC(=O)[C@H](Cc1c[nH]cn1)NC(=O)CCNC(=O)[C@@H](NC(=O)[C@H](C)NC(=O)[C@H](Cc1c[nH]c2ccccc12)NC(=O)[C@H](Cc1c[nH]cn1)NC(=O)[C@H](CCC(N)=O)NC(=O)COCCOCCNC(=O)COCCOCCNC(=O)CC[C@H](NC(=O)CCCCCCCCCCCCCCCCC(=O)O)C(=O)O)C(C)C)C(N)=O
Consider B3, for which the “hIP1 GRPR EC50” value worked out at 3.9 nM.

B4: Peptide 154 (peptide)
peptide: {C20 diacid}-[γGlu]RNHWAV[dA]HL[Nle]-NH2
SMILES: CCCC[C@H](NC(=O)[C@H](CC(C)C)NC(=O)[C@H](Cc1c[nH]cn1)NC(=O)[C@@H](C)NC(=O)[C@@H](NC(=O)[C@H](C)NC(=O)[C@H](Cc1c[nH]c2ccccc12)NC(=O)[C@H](Cc1c[nH]cn1)NC(=O)[C@H](CC(N)=O)NC(=O)[C@H](CCCNC(=N)N)NC(=O)CC[C@H](NC(=O)CCCCCCCCCCCCCCCCCCC(=O)O)C(=O)O)C(C)C)C(N)=O
For the molecule B4, the “hIP1 GRPR EC50” value came to 7.09 nM.

B5: Peptide 151 (peptide)
peptide: {C20 diacid}-[γGlu][AEEA][AEEA]GQHWAV[dA]HL[Nle]-NH2
SMILES: CCCC[C@H](NC(=O)[C@H](CC(C)C)NC(=O)[C@H](Cc1c[nH]cn1)NC(=O)[C@@H](C)NC(=O)[C@@H](NC(=O)[C@H](C)NC(=O)[C@H](Cc1c[nH]c2ccccc12)NC(=O)[C@H](Cc1c[nH]cn1)NC(=O)[C@H](CCC(N)=O)NC(=O)CNC(=O)COCCOCCNC(=O)COCCOCCNC(=O)CC[C@H](NC(=O)CCCCCCCCCCCCCCCCCCC(=O)O)C(=O)O)C(C)C)C(N)=O
On to B5, for which the “hIP1 GRPR EC50” value was 2.92 nM.

With {C18 diacid}-[γGlu][AEEA][AEEA]RRHWAV[dA]HL[Nle] [Peptide 157], the “hIP1 GRPR EC50” value stood at 161 nM.

With {C20 diacid}-[γGlu]RNHWAV[dA]HL[Nle] [Peptide 155], the “hIP1 GRPR EC50” value amounted to 132 nM.
